What was measured:
Experiment in all cases: fluorescence polarisation; competition set-up: constant concentration of isolated PSD95 PDZ domain and Cy5-labeled reference ligand titrated with the unlabeled CRHR1 peptide
[1] = target: isolated PDZ2 domain of PSD95 (UniProt P78352)
[2] = target: isolated PDZ3 domain of PSD95 (UniProt P78352)
[3] = target: isolated PDZ1-2 tandem of PSD95 (UniProt P78352)
[4] = target: isolated PDZ1 domain of PSD95 (UniProt P78352)
Sequence of isolated PDZ1 domain of PSD95 (P78352 whole entry, the tested form may be a part): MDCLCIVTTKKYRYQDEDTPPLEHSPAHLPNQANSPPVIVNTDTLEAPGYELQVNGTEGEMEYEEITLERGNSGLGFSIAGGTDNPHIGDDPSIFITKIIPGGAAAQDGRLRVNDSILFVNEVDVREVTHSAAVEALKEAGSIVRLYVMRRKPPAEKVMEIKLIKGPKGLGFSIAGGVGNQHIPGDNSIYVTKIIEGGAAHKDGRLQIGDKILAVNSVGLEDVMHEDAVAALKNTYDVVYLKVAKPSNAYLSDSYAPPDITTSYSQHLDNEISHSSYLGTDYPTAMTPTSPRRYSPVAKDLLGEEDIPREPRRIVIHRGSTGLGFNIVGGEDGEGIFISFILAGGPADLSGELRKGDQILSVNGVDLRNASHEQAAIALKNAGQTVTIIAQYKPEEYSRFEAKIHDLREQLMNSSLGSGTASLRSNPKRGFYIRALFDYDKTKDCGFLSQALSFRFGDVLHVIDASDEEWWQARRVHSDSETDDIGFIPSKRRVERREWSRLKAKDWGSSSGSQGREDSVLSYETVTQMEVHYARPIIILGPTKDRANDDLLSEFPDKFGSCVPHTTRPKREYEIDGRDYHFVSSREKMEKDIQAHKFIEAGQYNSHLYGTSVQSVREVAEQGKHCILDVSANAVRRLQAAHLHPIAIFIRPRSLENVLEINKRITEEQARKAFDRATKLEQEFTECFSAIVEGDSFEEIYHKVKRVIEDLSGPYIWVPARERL

Sequence of C-terminal 10 amino acids of CRHR1 (unlabeled CRHR1 peptide) (P35347 whole entry, looked up, tested part not stated): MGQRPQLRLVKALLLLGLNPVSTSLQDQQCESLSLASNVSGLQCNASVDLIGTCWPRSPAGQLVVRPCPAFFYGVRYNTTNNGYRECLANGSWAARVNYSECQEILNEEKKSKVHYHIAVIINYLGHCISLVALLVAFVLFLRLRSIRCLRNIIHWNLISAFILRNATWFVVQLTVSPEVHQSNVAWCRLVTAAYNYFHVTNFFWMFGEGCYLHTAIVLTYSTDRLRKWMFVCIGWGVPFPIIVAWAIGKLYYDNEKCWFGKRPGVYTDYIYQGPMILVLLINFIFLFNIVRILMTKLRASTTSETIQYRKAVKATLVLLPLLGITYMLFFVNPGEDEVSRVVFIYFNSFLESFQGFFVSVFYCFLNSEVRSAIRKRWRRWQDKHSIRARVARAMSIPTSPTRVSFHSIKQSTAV
Sequence of isolated PDZ2 domain of PSD95 (P78352 whole entry, the tested form may be a part): as the sequence (P78352 whole entry, the tested form may be a part) above
Sequence of isolated PDZ1-2 tandem of PSD95 (P78352 whole entry, the tested form may be a part): as above
Sequence of isolated PDZ3 domain of PSD95 (P78352 whole entry, the tested form may be a part): as above

Ki [1]: 19 µM
Ki [2]: 48 µM
Ki [3]: 24 µM
Ki [4]: 77 µM
Substance: C-terminal 10 amino acids of CRHR1 (unlabeled CRHR1 peptide) (from UniProt P35347 406-415)

From paper PMC4564177
